According to the nanobody polyreactivity screen of Harvey et al. (2022):

Assay: yeast display, Sf9 membrane polyspecificity reagent, FACS + sequencing; frameworks hold sequencing errors
Outline: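 After 36–48 hours of galactose induction, yeast (Saccharomyces cerevisiae BJ5465) displaying a synthetic nanobody library were stained at 4 °C for 1 hour with 10% biotinylated, detergent-solubilized Sf9 membrane reagent. Streptavidin microbeads enriched the stained cells before FACS sorting into low and high (top ~1%) gates on anti-HA and streptavidin fluorescence. Each clone's polyreactivity label reflects its gate of origin.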

Sequence | polyreactivity (PSR sort gate)
QVQLVESGGGLVQAGGSLRLSCAASGLTFRRYAMGWYRQAPGKERELVAAISSSGGNTYYADSVKGRFTISRDNAKNTVYLQMNSLQPEDTAVYYCATRYKSPSFDYWGQGTQVTVSS | high polyreactivity
QVQLIESGGGLVQAGGSLRLSCAASGSTFYGNAMGWYRQAPGKEREFVDAITGSGDSTDYADSVKGRFTISRDNAKNTVYLQMNSLKPEDTAVYFCNAEVFDRDSYEYWGQGTQVSVSS | low polyreactivity
QVQLVESGGGLVQAGGSLRLSCAASGRTFPGNDMGWYRQAPGKERELVAAISSDDSTYYADSVKGRFTISRDNAKNTVYLQMNSLKPEDTAVYYCNAEYYEGYIGVPGSYWPYEYWGQGTQVTVSS | low polyreactivity
QVQLVESGGGLVQAGGSLRLSCAASGFTFGSNTMGWYRQAPGKERELVAAITTSGDSTYYADSVKGRFTISRDTAKNTVYLQMNSLKPEDTAVYYCAAERRYGRYYRLVRLLGQGTQVTVSS | high polyreactivity
QVQLVESGGGLVQAGGSLRLSCAASGSIFQFSAKGWYRQAPGKERELVAGINTSGGSTYYADSVKGRFTISRDNAKNTVYLQMHSLKPEDTAVYYCMARSRYDTGPQRGYDYWGQGTQVTVSS | low polyreactivity
QVQLVESGGGLVQAGGSLRLSCAGSGIIFRGYDMGWYRQAPGKEMELVAAITWRGGSTYYADSVKGRFTISRDNAKNTVYLQMNSLKPEDTAVYYCAAVRKHSWFRHMDYWGQGTLVTVSS | high polyreactivity
QVQLVESGGGLVQAGGSLRLSCAASGFIFDSYVMGWYRQAPGKEREMVAAISSGGASTYYADSVKGRFTISRDNAKNTVYLQMNSLKPEDTAVYYCAAEYLYQPWGVDYDYWGQGSQVTVSS | high polyreactivity
QVQLVDSGGGLVQAGGSLRLSCAATGFTLPKYAMGWYRQAPGKERELVAAISSGGSTYYADSVKGRYTISRDNAKNTVYLQMNSLKPEDSAVYYCAAKYYYYRRDYWGQGTQVTLSS | high polyreactivity
QVQLVESGRGLVQAGGSLRLSCAASGFTFLLNAMGWYRQAPGKERELVAAITYSGGSTYYADSVKGRFTISRDNAKNTVYLQMNSLKPEDTAVYYCAKTSVTISEYEYWGQGTQVTVSS | low polyreactivity
QVQLVESGGGLVQAGGSLRLSCAASGFIFATYAMGWYRQAPGKERELVASINWSGGRTYYADSVKGRFTISRDNAKNTVYFQMNSLKPEDTEVYYCAARISTRYEYWGHGTQVTVSS | high polyreactivity
QVQLVESGGGLVQAGGSLSLSCAASGSTFAYYAMGWYRQAPGKERELVAGITWTGGSTYYADSVKGRFTISRDNAKNTVYIQMNSLKPEDTAVYYCAVTYPISEFYWGVKDRYDYWGQCTQVTVSS | low polyreactivity
QVQVVESGGGLVQAGGSLRLSCAASGFIIKDNAMGWYRQAPGKERELVAAITASGGRTYYADSVKGRFTISRDNAKNTVYLQMNSLKPEDTAVYYCAKRVKRPSESYNYNYYYWGQGTQVTVSS | high polyreactivity
QVQLVESGGGLVQAGGSLRLSCAASGSTFSSNTMGWYRQAPGKERELVAAITTGGDTYYADSVKGRFTISRDNAKNTVYLQMNSLKPEDTAVYYCAATPTYWYLWSPYDYWGQGTQVTVSS | low polyreactivity
QVQLVESGGGLVQAGGSLRLSCAASGIIFGYYAMGWKRQAPGKERELVAAIDWTGGNTYYADSVKGRFTSSRDNAKNTVYLQMNSLKPEDTAVYYWAADSNSQEDYWGQGTQVTVSS | low polyreactivity
QVQRVVSGGGLVQAGGSLRLSCAASGSIFQGNAMGWYRQAPGQERELVAAIHRSDGRTYYADSVKGRFTISRDNAKNTVYLQMNSLKPEDTAVYYCKVDVLLVHDYVFYSWMDYWGQGSQVTVSS | high polyreactivity
QVQLVESGVGLVQAARSLRLSCAASGRTFGSYAMGWYRQAPGKEREFVAGISYGGGRTYYADSVKGRFTISRDTAKNTVYLQMNSLKPADTAVYYCAADGVYRYNYPYLYTYDYWGQGTQVTVSS | low polyreactivity
QVQLVESGGGLVQAGGSLRLSCAASGITFIAYTMGWYRQAPGKERELVAGISRNGGRTYYADSVKGRFTISRDNAKNTVYLQMNSLKPEDTAVYYCNKVVSTYSSIKYDYWGQGTQVTVSS | high polyreactivity
QVQLVESGGGLVQAGGSLRLSCAASGYTFQKYAMGWYRQAPGKERELVAAITRSGTRTYYADSVKGRFTISRDNAKNTVYFQMNSLKPEDTAVYYCAAETYYSIYDYWGQGTQVTVSS | high polyreactivity
QDQLVESGGGLVQAGGSLRLSCAAYGRIFRANVMGWYRQAPGKERELVAAINWSGGSTYYADSVKGRFTISRDIAKNTVYLQMNSLKPEDTAVYYCAAAYKWFGEGRFYYWGQGTQVTVSS | high polyreactivity
QVQLVESGGGLVQAGGRLLLSCAASGFIFYSNAMGWYRQAPGKERELVAAISRSGGSTYYADSVKGRFTISRDNAMNTVFLQMNSLKPEDTAVYYCNADYVYRRYGYWGQGTQVNVSS | high polyreactivity
QVQLVESGGGLVQAGGSLRLSCAASGITFDVNAMGWYRQAPGKERELVAAITAGGNTYYADSVKGRFTISRDNAKNTVYLQMNSLKPEDTAVYYCAAVSTSLYWAGYDYWGQGTQVTVSS | low polyreactivity
QVQLVESGGGLVQAGGSLRLICAASGSTNYRYAMGWYRQAPGKERELVATISSTGARTNYADSVKGRFTISRDNAKNTDYLQMNSLKPEDTAVYYCAASAPYIYYWGQGTQVTVSS | high polyreactivity

Sequence | polyreactivity (PSR sort gate)
QVQLVESGGGLVQAGGSLRLSCAATGSIFFINAMGWYRQAPGKERELVAAITWDGGSTYYADSVKGRFTISRVNAKNTVYLQMNSLKPEDTAVYYCAAVADYYDFISPPLDYWGQGTQVNVSS | low polyreactivity
QVQLVESGGGLVQAGGSLRLSCAASGSIFRSYAMGWYRQAPGKERELVAGISYSGGSTYYADSVKGRFTISRDKAKNTVYLQMNSLKPEDTAVYYCNVDGGTYFFFVGAWGEYDYWGQGTQVTVSS | low polyreactivity
QVQLVESGGGLVQAGGSLRLSCAASGSIFRRNAMGWYRQAPGKERELVAAISSSGNTYYADSVKGRFTISRDNAKNTVYLQMNSLKPEDTAVYYCAADGRNYYGSYDYWGQGTQVTVSS | low polyreactivity
QVQLVESGGGLVQAGGSLRLSCAASGLTIGYYAMGWYRQAPGKERELVAAISGSGGATYYADSVKGRFTISRDNAKNTVYLQMNSLKPEDTAVYYCAAKWGRTGRFDYWGQGTQVTVSS | low polyreactivity
HVQLVESGGGLVQAGGSLRLSCAASGRTFRLYAMGRYRQATGKEMELVARIRWRGGTTYFADSVKGRFTISRDNAKNTVYLQMNRLKPEDTAVYYCAARAYPTWRTYYYCGQGTQVTVSS | high polyreactivity
QVQLVESGGGLVQAGGSLRLSCAASGFTFTYYTMGWYRQAPGKERELVAAISYSGGSTYYADSVKGRFTISRDNAKNTVYLQMNSLKPEDTAVYYCNAVTSWAGSLDYWGQGTQVTVSS | high polyreactivity
QVQLVESGGGLVQAGGSLRLSCAASGSIFGYNTMGWYIQAPGKERELVATITRGGSTHYADSVKGRFTISRDNAKNTVYLQMNSLKPEDTAVYYCAATRLSYVRLYRFSQQYYYWGQGTQVTVSS | high polyreactivity
QVQLVESGGGLVQAGGSLRLSCAASGSTFYLYAMGWYRQAPGKERELVAAISWSGDSTYYADSVKGRFTISRDNAKNTVYLQMNSLKPEDTAVYYCAAEFYWGDLSYWGQGTQVSVSS | high polyreactivity
QVQLEESGGGLVQAGGSLRLSCAASGSILDLNAMGWSRQATGKERELVAAISYSGDSTYYADSVKGRFTISRDNAKNTVYLQMNSQKPEDTAVYYCAAEVYGAVYDYWGQGTQVTVSS | low polyreactivity
QVQLVESGGGLVQAGGSLRLSCAASGRIFTRNAMGWYRQAPGKEREFVAAISSSGSSTYFADSVKGRFTISRDNAKNTVYLQMNSLKPEDTAVYYCAARVTSPVSHDRVDYWGQGTQVTVSS | high polyreactivity
QVQLVESGGGLVQAGGSLRLSCAASGYIFRRYAMGWYRQAPGKERELVAAISFSGGSTYYADSVKGRFTISRDNAKNTVYLQMNSLKPEDTAVYYCAALSLLRYDYWGQGTQVTVSS | high polyreactivity
QVQHVESGGGLVQAGGSLRLSCAASGRTFQWYTLGWYRQAPGKERELVAAISWSGTSTYYADSVKGRFTISRDNEKNTVYLLMNSLKPEDTAVYYCAAKTYPSLFFHYGYWGQGTQVTVSS | low polyreactivity
QVQLVESGGGLVQAGGSLRLSCAASGRTLRKYAMGWYRQAPGKERELVAAITTSGGSTYYADSVKGRFTISRDNAKNTVYLQMNSLKPDDTAVYYCNAARYYAYIGDYWGQGTQVTVSS | high polyreactivity
QVQLVESGGGLVQAGGSLRLSCAASGRTSSRNAMGWYRQAPGKERELVAAISQSGGSTYYADSVKGRFTISRDNAKNTVYLQMNSLKPEDTAVYYCAKEYKPQSYPTYYNYYYWGQGTQVTVSS | low polyreactivity
QVQLVESRGGLVQAGGSLRLSCAASGITSRLNAMVWYRQAPGKERELVAGISRGGGTTYYADSVKGRFTISRDNAKNTVYLQMNSLKTEDTAVYYCAAAYRVRGGTYDSWGQGTQVTVSS | high polyreactivity
QVQLVESGGGLVQAGGSLRLSCAASGFIFRFNAMGWYRQAPGKERELVAVIRWSSGSTYYADSVKGRFTISRDNAKNTVYLQMNSLKPEDTAVYYCAAYVVPAYYYWGQGTQVTVSS | low polyreactivity
QVQLVESGGGLVQAGGSLRLSCAASGNNLSVYTMGWYRQAPGKERELVATITYSGDRTYADSVKGRFTISRDNAKNTVYLQMNSLKPEDTAVYYCAKRNFGSYIRRGHWGQGTQVTVSS | low polyreactivity
QVQLVESVGGLVQAGGSLRLSCAASGFTFVGNTMGWYRQAPGKERELVAAIRGRDGRTYYADSVKGRFTISRDNAKNTVYLQMNSLKPEDTAVYYCNVDVKYSVRSEFDFWGQGTQVTVSS | low polyreactivity
QVQIEESGGGLVQAGGSLRLICAASGIIIMDYDMGWSRQAPGKERELVAAISRSGGSTYYADSVKGRFKISRDNAKNSVYLQMNSLKPEDTAVYYCNADNVDYPSAPLNPGKGIYYWGQGTQVTVSS | low polyreactivity
QVQLVESGGGLVQAGGSLRLSCAASGNIFGWYAMGWYRQAPGKERELVAAISSGGRTNYADSVKGRFTISRDNAKNTVYLQMNSLKPEDTAVYYCAVGLHKRPPPPRFRQYNYWGQGTQVTVSS | low polyreactivity
QVQLVESGGGLLQAGGSLRLSCAASGNTFITNAKGWYRQAPGKERDLVAAISSGGTTYYADSVKGRFTISRDTAKNTVYLQMYSLKPEDTAVYYCATDIHSVHNNRDKHDYDYWGQGTQVTVSS | low polyreactivity
